Consider two molecules from article PMC10516627 (Nucleic Acids Research, 2023).

This assay has as its target GST-RNF168 (human, UniProt Q8IYW5 1-571). The experiment in a line: pull-down.

Sequence of GST-RNF168 (Q8IYW5 whole entry): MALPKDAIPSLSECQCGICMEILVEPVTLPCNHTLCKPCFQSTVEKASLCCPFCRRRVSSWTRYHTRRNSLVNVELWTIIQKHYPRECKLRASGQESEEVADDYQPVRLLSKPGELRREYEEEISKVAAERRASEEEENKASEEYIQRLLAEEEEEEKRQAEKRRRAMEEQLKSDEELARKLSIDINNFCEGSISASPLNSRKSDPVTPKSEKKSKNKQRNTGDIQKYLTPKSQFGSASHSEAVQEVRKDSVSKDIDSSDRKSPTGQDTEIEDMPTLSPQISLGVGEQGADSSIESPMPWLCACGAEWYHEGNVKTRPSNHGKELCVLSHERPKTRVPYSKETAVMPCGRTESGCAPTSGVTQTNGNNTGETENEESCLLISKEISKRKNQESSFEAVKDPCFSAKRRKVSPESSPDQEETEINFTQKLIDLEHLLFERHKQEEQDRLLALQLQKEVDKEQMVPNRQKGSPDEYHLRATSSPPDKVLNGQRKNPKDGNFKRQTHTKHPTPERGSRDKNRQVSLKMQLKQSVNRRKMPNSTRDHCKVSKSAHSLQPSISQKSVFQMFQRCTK

B1: His-HDAC6 DAC1 domain (1-440 aa) (domain or fragment, human, UniProt Q9UBN7 1-440, looked up)
chain: MTSTGQDSTTTRQRRSRQNPQSPPQDSSVTSKRNIKKGAVPRSIPNLAEVKKKGKMKKLGQAMEEDLIVGLQGMDLNLEAEALAGTGLVLDEQLNEFHCLWDDSFPEGPERLHAIKEQLIQEGLLDRCVSFQARFAEKEELMLVHSLEYIDLMETTQYMNEGELRVLADTYDSVYLHPNSYSCACLASGSVLRLVDAVLGAEIRNGMAIIRPPGHHAQHSLMDGYCMFNHVAVAARYAQQKHRIRRVLIVDWDVHHGQGTQFTFDQDPSVLYFSIHRYEQGRFWPHLKASNWSTTGFGQGQGYTINVPWNQVGMRDADYIAAFLHVLLPVALEFQPQLVLVAAGFDALQGDPKGEMAATPAGFAQLTHLLMGLAGGKLILSLEGGYNLRALAEGVSASLHTLLGDPCPMLESPGAPCRSAQASVSCALEALEPFWEVLVR
Regarding B1, the binding result was “binds”.

B2: His-HDAC6 DAC2 domain (441-835 aa) (domain or fragment, human, UniProt Q9UBN7 441-835, looked up)
chain: STETVERDNMEEDNVEESEEEGPWEPPVLPILTWPVLQSRTGLVYDQNMMNHCNLWDSHHPEVPQRILRIMCRLEELGLAGRCLTLTPRPATEAELLTCHSAEYVGHLRATEKMKTRELHRESSNFDSIYICPSTFACAQLATGAACRLVEAVLSGEVLNGAAVVRPPGHHAEQDAACGFCFFNSVAVAARHAQTISGHALRILIVDWDVHHGNGTQHMFEDDPSVLYVSLHRYDHGTFFPMGDEGASSQIGRAAGTGFTVNVAWNGPRMGDADYLAAWHRLVLPIAYEFNPELVLVSAGFDAARGDPLGGCQVSPEGYAHLTHLLMGLASGRIILILEGGYNLTSISESMAACTRSLLGDPPPLLTLPRPPLSGALASITETIQVHRRYWRSLR
As to B2, the binding result is on record as “binds”.
